In US20240026407A1, “MODIFICATION OF SAPONINS” (GLAXOSMITHKLINE BIOLOGICALS SA, priority 2020, published 2024):

B1: 41 (protein, listed as Ardenticatena maritima)
chain: MKGARMQDRVETLLQSLTLDEKIKLLAGADTWHTHAIPRLGIPALKVTDGPNGVRGTQKDTRSQTSASFPVGTAMGATWNPDLVREIGEALAEEVKTKGAHVLLGPTVNMHRHPLAGRNFECFAEDPYLMARMAVAYIQGVQSQGVGACIKHYVCNDQEFERFSISAEVDERTLREIYLPPFKAAVQEAGVWTLMTAYNRVNGVYASENSHLFDILKDEWGFDGLALSDWYGTYSDRVPLERLDLEMPGPGRWMAPEKVRAALERGEITEADIDDKVRRLLRTLERVGAFEDSAPKEERSVDNPRHHEIIRRAGREAIVLLKNEDNVLPLDASRFPRLAVIGRPATEVSFQGGGSSEVNPHYVVQPLDAMRERYGEAFQMTYALGPAFYRNFPLLDTRGLRAEDGTPGKVTVRQYDNTELEGEPSKVFLAEGTQLAWFGEQISEFDLRSFSLTMSGTWTPPVSGTYTFSMATVGRGRFEFDGKTLLDWWEYIPEEQPQNFDGMVSVPWRQEEVTLELEAGREYPFRVDFAVVPGGRWRTIRLGVLPPQPADPIGEAVALAREADAAVVFVGLTPEWESEGSDRESMDLPGEQNELVARVAEANPNTIVIVNAGSPVHMPWLDKVKAVLQVWYLGQEMGNAITDVLFGEADPGGRLPTTFPKRLQDSPAYINYPGENGRVYYGERLYVGYRYYDKKEIEPLFPFGHGLSYTTFSYDALELAADQVRVGEGVDVHVTITNQGARRGQEVVQVYLHDVESSLPRPPKELKGFAKVTLEPGETRTVTIHLRPDAFAFYDDKRGAWVVEPGAFEVLVGRSAADIRLRARLDIVDKTTEALEAGNVLAG
B2: 32 (protein)
chain: MSIRLTDKASVPAVVAEMTLEEKARLVTGEFPFTTAGIKRLGIPPMRPLDGHTGINMGQLRSDMASKTLANKSVDELGEMSGPAISGFGTVITNAKDPAKRAKMAPSIQKLVQEVLDKVDELMPDGMYPGCFPPGIMQGSTWNPEVIEKEGSAVGKEMDAYKVDVCLGPNVNIHRDPLNGRLFEGYSEDPYVTATLAPYYIRGMQAEGVAADAKHFAANNQETHRQEIDERIPLRALYEIYLPGFKAAVQQGKVKTLMSAYNKINGTACALNHWLLTDVLRGEWGFEGFVVSDWGAVYDQVDAINAGNDLEMPGPLTFDKIVAAVKDGRIDEKTLDQRVANYLNVLVELPVMKGRKNAHIDREYSRKAAYDVAAEGSILLKNEGALPLNEGAKISLIGEHAKDYIICGKGSAFIDTDQATNLYDCAVETLGADKVEYGDVSADSDAAIIVVSVDGQEGSDRADLLLAPGDDQMILDAAKKAHANGKKAIVILNVTGPVEMEGWLDQVDAVLCVWLPGMEGGRATLDILTGKVNPSGKLTLTFPKHYYDCPTYGNFPGDGDEVWYGEGIYVGYRYYDKKHVEPLYPFGYGLSYTTFELSDIAIDRDVMDMDKGETVNVSVKVTNTGKVAGKEVVQVYISDEVSTLSKPLKELKGFQKVALQPGESKVVTIAIGKDQLASYDPAAKAWGSEPGYYQALVGTSSRDIAGAVRFKAVGYNPFGYGVNCSIGKIMANPAVVEAMKKYIPAHLLSDESMSSELTYFPEAKLQKIWNEKFSLAFKDKSETEKQAILDAMCAEIAKIEVI
modifications: uncultured Clostridium sp.
B3: 312 (protein, listed as Thermotoga neapolitana)
chain: MEKVNEILSQLTLEEKVKLVVGVGLPGLFGNPHSRVAGAAGETHPVPRVGLPAFVLADGPAGLRINPTRENDENTYYTTAFPVEIMLASTWNRELLEEVGKAMGEEVREYGVDVLLAPAMNIHRNPLCGRNFEYYSEDPVLSGEMASSFVKGVQSQGVGACIKHFVANNQETNRMVVDTIVSERALREIYLRGFEIAVKKSKPWSVMSAYNKLNGKYCSQNEWLLKKVLREEWGFEGFVMSDWYAGDNPVEQLKAGNDLIMPGKAYQVNTERRDEIEEIMEALKEGKLSEEVLDECVRNILKVLVNAPSFKNYRYSNKPDLEKHAKVAYEAGAEGVVLLRNEEALPLSENSKIALFGTGQIETIKGGTGSGDTHPRYAISILEGIKERGLNFDEELAKTYEDYIKKMRETEEYKPRRDSWGTIIKPKLPENFLSEKEIHKLAKKNDVAVIVISRISGEGYDRKPVKGDFYLSDDETDLIKTVSREFHEQGKKVIVLLNIGSPVEVVSWRDLVDGILLVWQAGQETGRIVADVLTGRINPSGKLPTTFPRDYSDVPSWTFPGEPKDNPQKVVYEEDIYVGYRYYDTFGVEPAYEFGYGLSYTTFEYSDLNVSFDGETLRVQYRIENTGGRAGKEVSQVYIKAPKGKIDKPFQELKAFHKTRLLNPGESEEVVLEIPVRDLASFNGEEWVVEAGEYEVRVGASSRNIKLKGTFSVGEERRFKP
B4: 35 (protein, listed as Verrucomicrobia bacterium)
chain: MSEPDVENRINGLLKQMSLEEKTSLLHGNSKFNTAGIKRLGIPRLHLSDGPHGVRRETEEHSWGPVGWEDDYVTYLPTGSALASTWNPALGRLFGETLGAEARHRNKDVILGPGINIVRTPVCGRNFEYFGEDPYHVGKMAAEVVRGIQNNDVAACVKHYALNNQEWNRGWVNAIVDERTLREIYLPAFEETVRAGALTFMGAYNRFRGQWCCENKYLVNDILKGEWGFDGVYLSDWGGVHSTRDSALNGLDLEMGTSDNYDEFFFARPLREAVEGGEIPESVVDDKVRRILRVMARIGALDPATRKTGARNTAAHQKAVRAIADEAMVLLKNDGVLPLDIHKTLKLAVIGENADKKHADQGGSSAIRALYEITPLEGLKRRGGDMVKITYVQGYRDTGDAAAFEPIGEPYVQTVDPKAGVRCWKVEYFNNRDLHMPPVTVRYEKSVDFDWQERSPAPNVSEDNFSARMTAEIKPTASGTHHIGLTSDDGSRLKIDGKVVIDHWGDHGEEQKDARVELVAGQTYRFEVEYYDSGKGAMLKLGWVTPDSSAADPEVVFAAALEAAREADAVLVFAGQNHRYDTEGVDRRDIRLHGRQNDLIEAVAAANPRTAVFIISGSAVEMPWIDKVPCVVQAWYAGMEVGNAAAGIVFGDVNPSGKLPITFPKRLEDVPAHSIGQYNDQDCEYREGLLVGYRHFDTRNAEPLFPFGHGLSYTKFTYGNLKVDPATLEVRVSVKNTGARKGKEVVQLYVHDVQSRLPRPVKELKGFEKVELAPGETKEVAFRLDERALAFYDADANRWVVEPGDFDILVGSSSRDIRLKGRLAYAGRKKGPL
B5: 370 (protein, listed as Rhizoctonia solani)
chain: MAPRPFKPLDVEDVISKLSLNEKTRLLAGIDNWHTYPVPRLGVPSLRFTDGPNGARGTKFFEGVPAACFPAATGLGSSWDPEFIQKVGQAIGRDCKDKGCHVLLGPTINIQRSPLGGRGFESYSEDPLLSGTLARAFIKGVQSEGVSATIKHYVTNDSEFERMSMSSELSTRALREIYLRPFELACRDPETAPWAVMTAYNRVNGLHASENKYLLDSVLRKQWGWEGMIMSDWYGTYSADASIKAGLDLEMPGPPTWRADALQRCVVAQKIRVPEIDARVREVLKLINRVAVSGIPENADETGEPKPETIDLLRQAAAHANVLLKNSESLLPISAKDVASIAVIGPNADSPVFSGGGSANLRPYKHTTALEGIAAALQDAGNKVEVQHTIGAHAHKEAPLLGVKHLKTKAGEPGYDIEWFNEDPVQNPDAKRVHYTHGTTSFAFFNDNLPGDDVLHQECWATMTAIFTPEVTGKYEFGAAATGLVDVYVDGKKIIDNSSNPVPGHVFFMTGTVEVLNTVELTAGKPAEIKLQFASPVAARTKGFTQIGAGSLSLEGRGGCRWGGGRTFEDDQGIKEAVDLAKKVDKVVLVVGLNNDWESEGYDRDNMELPRATNRLVSAVLEVNKNTAVVIISGTPVAMPWAESASTIVQSFYSGGEAGNGLADVLFGKVNPSSRLPLTFPVRDEDTPSHLNFPGQNGKVLYAEGVFVGYRHYLTYKKKVLFPFGYGLSYTQFEHSDLKLSGEIGKDSTVKVSVTVKNTGKVAGRDVVQIYVRDLVSRLDRPVKELKGFAKSSLLEPGKSETVTITLDKYAFGYFDDWAGEGRDGEGLWVAEAGDFEIVAASTSEDVGISAGISLKQSFEWL

Assay: Experiment 4-1: screening of glucosidases for deglycosylation with purified QS-18 (0.04 mg/ml) at pH 7.5 and room temperature
Assay type: biochemical, Quillaja saponaria
Settings: pH 7.5, room temperature, 20 h, clarified E. coli lysate, QS-18 2150 to QS-21 1988 by LCMS/MS
Experimental: Nucleotide sequences were sub-cloned into pET24b+ for expression. 10 uL of E. coli cells (One Shot® BL21(DE3) chemically competent E. coli) were transferred to each well of a 96 well PCR plate (prechilled on ice). 10 uL autoclaved water was added to the DNA, resuspended by pipetting, and 1 uL of plasmid DNA (15-30 ng) was transferred to the competent cells. Immediately after addition, the resulting mixture was mixed by pipetting. Cells were heat shocked by placing the plate in a thermal cycler at 42° C. for 30 seconds then transferred directly to an ice bath for 2 min. 100 uL sterile Lysogeny Broth (LB) medium was added to each well containing transformed cells. The content of each plate was transferred into a 96-deep well plate pre-aliquoted with 400 uL LB and the plate was incubated at 37° C. with shaking and 85% humidity for 1 hour. After outgrowth, 500 uL of sterile LB containing 100 ug/mL kanamycin was added to the plates containing cells and plates incubated at 37° C. with shaking overnight (18 hours) with humidity control (85%).
1000 mLs of Overnight Express Media was supplemented with 1 mL kanamycin 50 mg/mL and 20 mL of 50% v/v glycerol added (50 ug/mL kanamycin final and 1% glycerol). 96-Well Assay Block 2 mL plates were aliquoted with 380 uL of media per well. Pre-inoculum (20 uL) from transformation plates was added. The plates were sealed appropriately and incubated at 37° C. at 300 with shaking for 2 h. After 2 h the temperature was lowered to 20° C. and incubation continued for 20 h.
The liquid cultures were centrifuged for 10 minutes at 4° C. The supernatant was discarded, plates blotted on an absorbent material to remove residue and the plates frozen at −80° C.
Lysis buffer was prepared according to the following protocol: • 1. Polymyxin B sulphate (0.5 mg/mL) was suspended in 100 mM potassium phosphate pH 7.5 • 2. The mixture was sonicated until polymyxin B sulphate had dissolved • 3. Lysozyme (1 mg/mL) and benzonase (0.1 uL/mL lysis buffer) were added
2 copies of each cell pellet plate were removed from −80 degC freezer and allowed to thaw. 200 uL of lysis buffer was added to each well of one copy of the cell pellet plates. Plates were shaken at room temperature for 10 mins. 190 uL of cell pellet/lysis buffer was transferred to a corresponding fresh cell pellet plate. These plates were incubated at room temperature with shaking for 2 hours. Lysate was clarified by centrifugation (10 min, 4 degC).
QS-18 was obtained by analogous methods to Example 3, collecting a QS-18 containing phenyl fraction following phenyl treatment (presence of m/z corresponding to key components was confirmed by MS and the phenyl fraction then used without further treatment). QS-18 solution was prepared by diluting aqueous QS-18 (ca 1 mg/mL) with 100 mM potassium phosphate pH 7.5 to 0.2 mg/ml. 40 uL clarified lysate was transferred into fresh 96 well PCR plates. 10 uL QS-18 solution added to each well of lysate to a final concentration of 0.04 mg/ml. Incubated at room temperature with shaking for 20 h. Quenched with 50 uL MeCN and shaken at room temperature for 10 mins. Samples were analysed by LC-MS/MS using a Waters Acquity H class coupled to a Waters Xevo Tandem Quadrupole (TQD) Mass Spectrometer.
Enzyme activity was calculated as: […]
Candidate enzymes with % conversion >0.72%, i.e. >3 S.D. above negative control, were considered to be positive hits and are listed below in Table 7. Sample results are shown in FIG. 10 for a QS-21 standard, FIG. 11 for negative control and FIG. 12 for treatment with the glucosidase of SEQ ID No. 262.
In the case of B1, the “Expt 4-1 % conv” value is reported as 4.0%. With B2 the “Expt 4-1 % conv” value was 2.2%. For B3, the “Expt 4-1 % conv” value was 1.6%. With B4 the “Expt 4-1 % conv” value was 1.2%. With B5 the “Expt 4-1 % conv” value was 1.1%.

Assay: Experiment 4-2: screening of glucosidases for deglycosylation with purified QS-18 (1 mg/ml) at pH 6 and 30 deg C
Assay type: biochemical, Quillaja saponaria
Settings: pH 6, 30 degC, 18 hrs, clarified lysate, LCMS/MS
Experimental: Lysates were prepared in an identical manner to Experiment 4-1 above, except the lysis buffer was prepared in 100 mM potassium phosphate buffer pH 6. QS-18 solution was prepared by dissolving QS-18 in 100 mM potassium phosphate buffer pH 6 (2 mg/mL).
12 uL clarified lysate was transferred into fresh 96 well PCR plates. 12 uL QS-18 solution was added (1 mg/ml final concentration), plates sealed and incubated overnight (30° C.) for 18 hrs. After quenching with 25 uL MeCN and shaking for 10 mins (RT), samples were analysed using the LC-MS/MS protocol described in Experiment 4-1 and enzyme activity determined in an analogous manner.
For B1, the “Expt 4-2 % conv” value was 0.7%. For B2, the “Expt 4-2 % conv” value was 0.6%. With B3 the “Expt 4-2 % conv” value was 0.4%. For B4, the “Expt 4-2 % conv” value was 0.4%. In the case of B5, the “Expt 4-2 % conv” value is reported as 0.5%.
